The source of these data is patent US20140087995A1 (published 2014).

Numbered stars: 1 amine (or outer) side, 2 acyl side, 3 side chain; on linkers, the order of the positions; unused ones are H or OH. Bridge positions count the residues as written; N and C are the ends. Side chains are listed from the residue outwards. Ends that are not written are not given here. * marks the point of attachment. C20 diacid = O=C(O)CCCCCCCCCCCCCCCCCCC(=O)*; γGlu = O=C(O)[C@H](CCC(=O)[*:2])N[*:1]

For this experiment, the target named is T1, human calcitonin receptor (human, UniProt P30988 25-474).
T1 construct: whole, on cells; Used as cell membranes prepared from the transfected BHK cells (Assay VII), not as intact cells; also called hCTR; hCT
T1 sequence (looked up): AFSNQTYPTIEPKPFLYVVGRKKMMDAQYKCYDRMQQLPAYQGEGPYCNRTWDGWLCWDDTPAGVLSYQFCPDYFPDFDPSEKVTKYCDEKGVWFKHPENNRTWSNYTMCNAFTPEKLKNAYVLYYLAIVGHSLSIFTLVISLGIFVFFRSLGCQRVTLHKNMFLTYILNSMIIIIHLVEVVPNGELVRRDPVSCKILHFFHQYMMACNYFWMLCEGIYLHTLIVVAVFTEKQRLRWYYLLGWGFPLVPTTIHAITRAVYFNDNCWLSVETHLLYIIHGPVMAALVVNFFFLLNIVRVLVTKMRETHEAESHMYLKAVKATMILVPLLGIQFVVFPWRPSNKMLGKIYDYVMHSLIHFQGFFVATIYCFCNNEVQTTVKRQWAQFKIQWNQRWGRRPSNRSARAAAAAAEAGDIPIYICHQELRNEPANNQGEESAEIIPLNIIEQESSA
Briefly: SPA competition against 125I-calcitonin, membranes with human calcitonin receptor (Assay VII). Here is the method:
Membranes were prepared in the following way; the cells were rinsed with PBS and incubated with Versene for approximately 5 min before harvesting. The cells were flushed with PBS and the cell-suspension was centrifuged for 5 min at 1000 rpm. Cells were homogenized (Ultrathurrax) in a buffer containing 20 mM Na-HEPES and 10 mM EDTA (pH 7.4) and centrifuged at 20.000 rpm for 15 min. The resulting pellet was resuspended, homogenized and centrifuged (20.000 rpm, 15 min) in a buffer containing 20 mM Na-HEPES and 0.1 mM EDTA (pH 7.4, buffer 2). The resulting pellet was resuspended in buffer 2 and protein concentration was measured (BCA protein Assay, Pierce). The homogenate was kept cold during the whole procedure. The membranes were kept at −80° C. until use. Assay was performed in a 384 well Optiplate (PerkinElmer) in a total volume of 40 ul. Membranes were mixed with SPA beads. Final concentration of membranes 35 ng/μL final and Final concentration of SPA beads was 0.05 mg/well. Test-compounds were dissolved in DMSO and further diluted in assay buffer (50 mM Hepes, pH 7.4, 1 mM CaCl2, 5 mM MgCl₂, 0.1% OA and 0.02% Tween20). […] The final mixture was incubated for 120 min with shaking at 400 rpm at 25° C. prior to centrifugation (1500 rpm, 10 min). Samples were analyzed on TopCounter™ (Packard). The […] was calculated using (one site binding competition analysis) GraphPad Prism5 as a measure of receptor affinity.

B1: N^ε1-[(4S)-4-carboxy-4-(19-carboxynonadecanoylamino)butanoyl]-[Arg17,Pro21,Pro27,Glu35]-h-amylin (peptide)
peptide: K([γGlu-C20 diacid])CNTATCATQRLANFLRHSSPNFGAIPSSTNVGSETY-NH2
modifications: disulfide 2-7; N-terminus assumed
SMILES: CC[C@H](C)[C@H](NC(=O)[C@H](C)NC(=O)CNC(=O)[C@H](Cc1ccccc1)NC(=O)[C@H](CC(N)=O)NC(=O)[C@@H]1CCCN1C(=O)[C@H](CO)NC(=O)[C@H](CO)NC(=O)[C@H](Cc1c[nH]cn1)NC(=O)[C@H](CCCNC(=N)N)NC(=O)[C@H](CC(C)C)NC(=O)[C@H](Cc1ccccc1)NC(=O)[C@H](CC(N)=O)NC(=O)[C@H](C)NC(=O)[C@H](CC(C)C)NC(=O)[C@H](CCCNC(=N)N)NC(=O)[C@H](CCC(N)=O)NC(=O)[C@@H](NC(=O)[C@H](C)NC(=O)[C@@H]1CSSC[C@H](NC(=O)[C@@H](N)CCCCNC(=O)CC[C@H](NC(=O)CCCCCCCCCCCCCCCCCCC(=O)O)C(=O)O)C(=O)N[C@@H](CC(N)=O)C(=O)N[C@@H]([C@@H](C)O)C(=O)N[C@@H](C)C(=O)N[C@@H]([C@@H](C)O)C(=O)N1)[C@@H](C)O)C(=O)N1CCC[C@H]1C(=O)N[C@@H](CO)C(=O)N[C@@H](CO)C(=O)N[C@H](C(=O)N[C@@H](CC(N)=O)C(=O)N[C@H](C(=O)NCC(=O)N[C@@H](CO)C(=O)N[C@@H](CCC(=O)O)C(=O)N[C@H](C(=O)N[C@@H](Cc1ccc(O)cc1)C(N)=O)[C@@H](C)O)C(C)C)[C@@H](C)O
notes: also called compound 27
On to B1, for which the IC50 was 34.5 nM.

B2: N^ε1-[(4S)-4-carboxy-4-[[(4S)-4-carboxy-4-(19-carboxynonadecanoylamino)butanoyl]amino]butanoyl]-[Asp14,Arg17,Pro21,Pro27,Asp35]-h-amylin (peptide)
peptide: K([γGlu-γGlu-C20 diacid])CNTATCATQRLADFLRHSSPNFGAIPSSTNVGSDTY-NH2
modifications: disulfide 2-7; N-terminus assumed
SMILES: CC[C@H](C)[C@H](NC(=O)[C@H](C)NC(=O)CNC(=O)[C@H](Cc1ccccc1)NC(=O)[C@H](CC(N)=O)NC(=O)[C@@H]1CCCN1C(=O)[C@H](CO)NC(=O)[C@H](CO)NC(=O)[C@H](Cc1c[nH]cn1)NC(=O)[C@H](CCCNC(=N)N)NC(=O)[C@H](CC(C)C)NC(=O)[C@H](Cc1ccccc1)NC(=O)[C@H](CC(=O)O)NC(=O)[C@H](C)NC(=O)[C@H](CC(C)C)NC(=O)[C@H](CCCNC(=N)N)NC(=O)[C@H](CCC(N)=O)NC(=O)[C@@H](NC(=O)[C@H](C)NC(=O)[C@@H]1CSSC[C@H](NC(=O)[C@@H](N)CCCCNC(=O)CC[C@H](NC(=O)CC[C@H](NC(=O)CCCCCCCCCCCCCCCCCCC(=O)O)C(=O)O)C(=O)O)C(=O)N[C@@H](CC(N)=O)C(=O)N[C@@H]([C@@H](C)O)C(=O)N[C@@H](C)C(=O)N[C@@H]([C@@H](C)O)C(=O)N1)[C@@H](C)O)C(=O)N1CCC[C@H]1C(=O)N[C@@H](CO)C(=O)N[C@@H](CO)C(=O)N[C@H](C(=O)N[C@@H](CC(N)=O)C(=O)N[C@H](C(=O)NCC(=O)N[C@@H](CO)C(=O)N[C@@H](CC(=O)O)C(=O)N[C@H](C(=O)N[C@@H](Cc1ccc(O)cc1)C(N)=O)[C@@H](C)O)C(C)C)[C@@H](C)O
notes: also called compound 2
B2: the half-maximal inhibitory concentration (IC50) turned out to be 19.5 nM.

B3: N^ε1-[(4S)-4-carboxy-4-(19-carboxynonadecanoylamino)butanoyl]-[Arg17,Pro21,Pro27,Lys35]-h-amylin (peptide)
peptide: K([γGlu-C20 diacid])CNTATCATQRLANFLRHSSPNFGAIPSSTNVGSKTY-NH2
modifications: disulfide 2-7; N-terminus assumed
SMILES: CC[C@H](C)[C@H](NC(=O)[C@H](C)NC(=O)CNC(=O)[C@H](Cc1ccccc1)NC(=O)[C@H](CC(N)=O)NC(=O)[C@@H]1CCCN1C(=O)[C@H](CO)NC(=O)[C@H](CO)NC(=O)[C@H](Cc1c[nH]cn1)NC(=O)[C@H](CCCNC(=N)N)NC(=O)[C@H](CC(C)C)NC(=O)[C@H](Cc1ccccc1)NC(=O)[C@H](CC(N)=O)NC(=O)[C@H](C)NC(=O)[C@H](CC(C)C)NC(=O)[C@H](CCCNC(=N)N)NC(=O)[C@H](CCC(N)=O)NC(=O)[C@@H](NC(=O)[C@H](C)NC(=O)[C@@H]1CSSC[C@H](NC(=O)[C@@H](N)CCCCNC(=O)CC[C@H](NC(=O)CCCCCCCCCCCCCCCCCCC(=O)O)C(=O)O)C(=O)N[C@@H](CC(N)=O)C(=O)N[C@@H]([C@@H](C)O)C(=O)N[C@@H](C)C(=O)N[C@@H]([C@@H](C)O)C(=O)N1)[C@@H](C)O)C(=O)N1CCC[C@H]1C(=O)N[C@@H](CO)C(=O)N[C@@H](CO)C(=O)N[C@H](C(=O)N[C@@H](CC(N)=O)C(=O)N[C@H](C(=O)NCC(=O)N[C@@H](CO)C(=O)N[C@@H](CCCCN)C(=O)N[C@H](C(=O)N[C@@H](Cc1ccc(O)cc1)C(N)=O)[C@@H](C)O)C(C)C)[C@@H](C)O
notes: also called compound 35
As to B3, the IC50 was found to be 48.8 nM.

B4: N^ε1-[(4S)-4-carboxy-4-[[(4S)-4-carboxy-4-(19-carboxynonadecanoylamino)butanoyl]amino]butanoyl]-[Asp14,Arg17,Pro21,Pro26,Asp35]-h-amylin (peptide)
peptide: K([γGlu-γGlu-C20 diacid])CNTATCATQRLADFLRHSSPNFGAPLSSTNVGSDTY-NH2
modifications: disulfide 2-7; N-terminus assumed
SMILES: CC(C)C[C@H](NC(=O)[C@H](CCCNC(=N)N)NC(=O)[C@H](CCC(N)=O)NC(=O)[C@@H](NC(=O)[C@H](C)NC(=O)[C@@H]1CSSC[C@H](NC(=O)[C@@H](N)CCCCNC(=O)CC[C@H](NC(=O)CC[C@H](NC(=O)CCCCCCCCCCCCCCCCCCC(=O)O)C(=O)O)C(=O)O)C(=O)N[C@@H](CC(N)=O)C(=O)N[C@@H]([C@@H](C)O)C(=O)N[C@@H](C)C(=O)N[C@@H]([C@@H](C)O)C(=O)N1)[C@@H](C)O)C(=O)N[C@@H](C)C(=O)N[C@@H](CC(=O)O)C(=O)N[C@@H](Cc1ccccc1)C(=O)N[C@@H](CC(C)C)C(=O)N[C@@H](CCCNC(=N)N)C(=O)N[C@@H](Cc1c[nH]cn1)C(=O)N[C@@H](CO)C(=O)N[C@@H](CO)C(=O)N1CCC[C@H]1C(=O)N[C@@H](CC(N)=O)C(=O)N[C@@H](Cc1ccccc1)C(=O)NCC(=O)N[C@@H](C)C(=O)N1CCC[C@H]1C(=O)N[C@@H](CC(C)C)C(=O)N[C@@H](CO)C(=O)N[C@@H](CO)C(=O)N[C@H](C(=O)N[C@@H](CC(N)=O)C(=O)N[C@H](C(=O)NCC(=O)N[C@@H](CO)C(=O)N[C@@H](CC(=O)O)C(=O)N[C@H](C(=O)N[C@@H](Cc1ccc(O)cc1)C(N)=O)[C@@H](C)O)C(C)C)[C@@H](C)O
notes: also called compound 1
For the molecule B4, the IC50 worked out at 32.5 nM.

B5: N^ε1-[(4S)-4-carboxy-4-[[(4S)-4-carboxy-4-(19-carboxynonadecanoylamino)butanoyl]amino]butanoyl]-[Asp14,Arg17,Pro21,Pro27,Arg35]-h-amylin (peptide)
peptide: K([γGlu-γGlu-C20 diacid])CNTATCATQRLADFLRHSSPNFGAIPSSTNVGSRTY-NH2
modifications: disulfide 2-7; N-terminus assumed
SMILES: CC[C@H](C)[C@H](NC(=O)[C@H](C)NC(=O)CNC(=O)[C@H](Cc1ccccc1)NC(=O)[C@H](CC(N)=O)NC(=O)[C@@H]1CCCN1C(=O)[C@H](CO)NC(=O)[C@H](CO)NC(=O)[C@H](Cc1c[nH]cn1)NC(=O)[C@H](CCCNC(=N)N)NC(=O)[C@H](CC(C)C)NC(=O)[C@H](Cc1ccccc1)NC(=O)[C@H](CC(=O)O)NC(=O)[C@H](C)NC(=O)[C@H](CC(C)C)NC(=O)[C@H](CCCNC(=N)N)NC(=O)[C@H](CCC(N)=O)NC(=O)[C@@H](NC(=O)[C@H](C)NC(=O)[C@@H]1CSSC[C@H](NC(=O)[C@@H](N)CCCCNC(=O)CC[C@H](NC(=O)CC[C@H](NC(=O)CCCCCCCCCCCCCCCCCCC(=O)O)C(=O)O)C(=O)O)C(=O)N[C@@H](CC(N)=O)C(=O)N[C@@H]([C@@H](C)O)C(=O)N[C@@H](C)C(=O)N[C@@H]([C@@H](C)O)C(=O)N1)[C@@H](C)O)C(=O)N1CCC[C@H]1C(=O)N[C@@H](CO)C(=O)N[C@@H](CO)C(=O)N[C@H](C(=O)N[C@@H](CC(N)=O)C(=O)N[C@H](C(=O)NCC(=O)N[C@@H](CO)C(=O)N[C@@H](CCCNC(=N)N)C(=O)N[C@H](C(=O)N[C@@H](Cc1ccc(O)cc1)C(N)=O)[C@@H](C)O)C(C)C)[C@@H](C)O
notes: also called compound 52
Take B5: the half-inhibitory concentration (IC50) stood at 56.9 nM.
